Patent US20220220215A1 (CRESCENDO BIOLOGICS, published 2022)
Positions count from the first letter of the chain named. Numbers in names are those of the source.

B1: TPP-1409 CD137A-1GS-HSA2-1GS-PD138G7(G109D) (bispecific antibody)
chain: EVQLVESGGGLVQPGGSLRLSCAASGFTLSNYWMNWVRQAPGKGLEWVANINQDGSERYYVDSVKGRFTISRDNAKNSLYLQMNSLRAEDTAVYYCARGGEGYGVDHYGLDVSGQGTTVTVSSGGGGSEVQLVESGGGLVKPGGSLRLSCAASGFTFSNYNMNWVRQAPGKGLEWVSSISSAGTHIYYADSVKGRFTISRDNAKNSLYLQMNSLRAEDTAVYYCARDPHSTGWYKDFDYWGQGTLVTVSSGGGGSEVQLVESGGGVVRPGGSLRLSCAASGFTFDDYAMSWVRQAPGKGLEWVSGITWNGGSTGYADSVKDRFTISRDNAKNSLYLQMNSLRAEDTALYYCVRDKYSYAWSYDDFDIWGQGTMVTVSS
B2: TPP-950: PDA2-6GS-172E1-13-6GS-HSA2-His (bispecific antibody)
chain: EVQLVESGGGVVRPGGSLRLSCAASGFTFDDYAMSWVRQAPGKGLEWVSGITWNAGSTGYADSVKGRFTISRDNAKNSLYLQMNSLRAEDTALYYCVRDKYSYAWSYDDFDIWGQGTMVTVSSGGGGSGGGGSGGGGSGGGGSGGGGSGGGGSEVQLVESGGGVVQPGGSLRLSCAASGFTFSNYGMHWVRQAPGKGLEWVAVISNDGNTKTYADSVKGRFTISRDNSKNTLYLQMNSLRAEDTAVYYCAQDETTTVTASYYFDYWGQGTLVTVSSGGGGSGGGGSGGGGSGGGGSGGGGSGGGGSEVQLVESGGGLVKPGGSLRLSCAASGFTFSNYNMNWVRQAPGKGLEWVSSISSAGTHIYYADSVKGRFTISRDNAKNSLYLQMNSLRAEDTAVYYCARDPHSTGWYKDFDYWGQGTLVTVSSAAAHHHHHH
notes: Single-chain VH fusion (PD-1 VH, CD137 VH, HSA VH), His tag
B3: TPP-957; PD138G7(G109D)-6GS-172E1-13-6GS-HSA2-His (bispecific antibody)
chain: B2 chain with A55G, G66D
notes: as for B2
B4: TPP-943: PDA-6GS-172E1-13-6GS-HSA2-His (bispecific antibody)
chain: EVQLVESGGGLVQPGRSLRLSCAASGFTFDDYALHWVRQAPGKDLEWVSGISWNGGSYGYADSVKGRFTISRDNAKNSLYLQMNSLRAEDTALYYCVREKGPGLTGSTADYYGLDAWGQGTMVTVSSGGGGSGGGGSGGGGSGGGGSGGGGSGGGGSEVQLVESGGGVVQPGGSLRLSCAASGFTFSNYGMHWVRQAPGKGLEWVAVISNDGNTKTYADSVKGRFTISRDNSKNTLYLQMNSLRAEDTAVYYCAQDETTTVTASYYFDYWGQGTLVTVSSGGGGSGGGGSGGGGSGGGGSGGGGSGGGGSEVQLLESGGGLVKPGGSLRLSCAASGFTVSSYTMNWVRQAPGKGLEWVSSISSSGRYIYYADSVKGRFTISRDNAKNSLYLQMNSLRAEDTAVYYCARDPRMVGNPHEFDIWGQGTMVTVSSAAAHHHHHH
notes: Single-chain VH fusion
B5: TPP-971: PDA2-6GS-HSA2-6GS-172E1-13-His (bispecific antibody)
chain: EVQLVESGGGVVRPGGSLRLSCAASGFTFDDYAMSWVRQAPGKGLEWVSGITWNAGSTGYADSVKGRFTISRDNAKNSLYLQMNSLRAEDTALYYCVRDKYSYAWSYDDFDIWGQGTMVTVSSGGGGSGGGGSGGGGSGGGGSGGGGSGGGGSEVQLVESGGGLVKPGGSLRLSCAASGFTFSNYNMNWVRQAPGKGLEWVSSISSAGTHIYYADSVKGRFTISRDNAKNSLYLQMNSLRAEDTAVYYCARDPHSTGWYKDFDYWGQGTLVTVSSGGGGSGGGGSGGGGSGGGGSGGGGSGGGGSEVQLVESGGGVVQPGGSLRLSCAASGFTFSNYGMHWVRQAPGKGLEWVAVISNDGNTKTYADSVKGRFTISRDNSKNTLYLQMNSLRAEDTAVYYCAQDETTTVTASYYFDYWGQGTLVTVSSAAAHHHHHH
notes: Single-chain VH fusion (PD-1 VH, HSA VH, CD137 VH), His tag
B6: TPP-975: CD137D-6GS-PDA2-6GS-HSA2-His (bispecific antibody)
chain: EVQLVESGGGVVQPGGSLRLSCAASGFTFSNYGMHWVRQAPGKGLEWVAVISNDGNTKTYADSVKGRFTISRDNSKNTLYLQMNSLRAEDTAVYYCAQDETTTVTASYYFDYWGQGTLVTVSSGGGGSGGGGSGGGGSGGGGSGGGGSGGGGSEVQLVESGGGVVRPGGSLRLSCAASGFTFDDYAMSWVRQAPGKGLEWVSGITWNAGSTGYADSVKGRFTISRDNAKNSLYLQMNSLRAEDTALYYCVRDKYSYAWSYDDFDIWGQGTMVTVSSGGGGSGGGGSGGGGSGGGGSGGGGSGGGGSEVQLVESGGGLVKPGGSLRLSCAASGFTFSNYNMNWVRQAPGKGLEWVSSISSAGTHIYYADSVKGRFTISRDNAKNSLYLQMNSLRAEDTAVYYCARDPHSTGWYKDFDYWGQGTLVTVSSAAAHHHHHH
notes: Single-chain VH fusion (CD137 VH, PD-1 VH, HSA VH), His tag
B7: TPP-951: PDA2-6GS-172E1-13-6GS-HSA3-His (bispecific antibody)
chain: EVQLVESGGGVVRPGGSLRLSCAASGFTFDDYAMSWVRQAPGKGLEWVSGITWNAGSTGYADSVKGRFTISRDNAKNSLYLQMNSLRAEDTALYYCVRDKYSYAWSYDDFDIWGQGTMVTVSSGGGGSGGGGSGGGGSGGGGSGGGGSGGGGSEVQLVESGGGVVQPGGSLRLSCAASGFTFSNYGMHWVRQAPGKGLEWVAVISNDGNTKTYADSVKGRFTISRDNSKNTLYLQMNSLRAEDTAVYYCAQDETTTVTASYYFDYWGQGTLVTVSSGGGGSGGGGSGGGGSGGGGSGGGGSGGGGSEVQLLESGGGLVKPGGSLRLSCAASGFTVSSYTMNWVRQAPGKGLEWVSSISSSGRYIYYADSVKGRFTISRDNAKNSLYLQMNSLRAEDTAVYYCARDPRMVGNPHEFDIWGQGTMVTVSSAAAHHHHHH
notes: as for B2
B8: TPP-958: PD138G7(G109D)-6GS-172E1-13-6GS-HSA3-His (bispecific antibody)
chain: B7 chain with A55G, G66D
notes: as for B2
B9: TPP-1025: CD137A -6GS-HSA3-2-6GS-PDA2-His (bispecific antibody)
chain: EVQLVESGGGLVQPGGSLRLSCAASGFTLSNYWMNWVRQAPGKGLEWVANINQDGSERYYVDSVKGRFTISRDNAKNSLYLQMNSLRAEDTAVYYCARGGEGYGVDHYGLDVSGQGTTVTVSSGGGGSGGGGSGGGGSGGGGSGGGGSGGGGSEVQLLESGGGLVKPGGSLRLSCAASGFTVSSYTMNWVRQAPGKGLEWVSSISSSGRYIYYADSVKGRFTISRDNAKNSLYLQMNSLRAEDTAVYYCARDPRMVGNPHEFDIWGQGTMVTVSSGGGGSGGGGSGGGGSGGGGSGGGGSGGGGSEVQLVESGGGVVRPGGSLRLSCAASGFTFDDYAMSWVRQAPGKGLEWVSGITWNAGSTGYADSVKGRFTISRDNAKNSLYLQMNSLRAEDTALYYCVRDKYSYAWSYDDFDIWGQGTMVTVSSAAAHHHHHH
notes: Single-chain VH fusion (CD137 VH, HSA VH, PD-1 VH), His tag
B10: TPP-942: PDA-6GS-172E1-13-6GS-HSA2-2-His (bispecific antibody)
chain: EVQLVESGGGLVQPGRSLRLSCAASGFTFDDYALHWVRQAPGKDLEWVSGISWNGGSYGYADSVKGRFTISRDNAKNSLYLQMNSLRAEDTALYYCVREKGPGLTGSTADYYGLDAWGQGTMVTVSSGGGGSGGGGSGGGGSGGGGSGGGGSGGGGSEVQLVESGGGVVQPGGSLRLSCAASGFTFSNYGMHWVRQAPGKGLEWVAVISNDGNTKTYADSVKGRFTISRDNSKNTLYLQMNSLRAEDTAVYYCAQDETTTVTASYYFDYWGQGTLVTVSSGGGGSGGGGSGGGGSGGGGSGGGGSGGGGSEVQLVESGGGLVKPGGSLRLSCAASGFTFSNYNMNWVRQAPGKGLEWVSSISSAGTHIYYADSVKGRFTISRDNAKNSLYLQMNSLRAEDTAVYYCARDPHSTGWYKDFDYWGQGTLVTVSSAAAHHHHHH
notes: Single-chain fusion of VH single domains (PD-1 VH, CD137 VH, HSA VH) joined by 6GS linkers, His tag
B11: TPP-1411 PD138G7(G109D)-1GS-CD137A-1GS-HSA2 (bispecific antibody)
chain: EVQLVESGGGVVRPGGSLRLSCAASGFTFDDYAMSWVRQAPGKGLEWVSGITWNGGSTGYADSVKDRFTISRDNAKNSLYLQMNSLRAEDTALYYCVRDKYSYAWSYDDFDIWGQGTMVTVSSGGGGSEVQLVESGGGLVQPGGSLRLSCAASGFTLSNYWMNWVRQAPGKGLEWVANINQDGSERYYVDSVKGRFTISRDNAKNSLYLQMNSLRAEDTAVYYCARGGEGYGVDHYGLDVSGQGTTVTVSSGGGGSEVQLVESGGGLVKPGGSLRLSCAASGFTFSNYNMNWVRQAPGKGLEWVSSISSAGTHIYYADSVKGRFTISRDNAKNSLYLQMNSLRAEDTAVYYCARDPHSTGWYKDFDYWGQGTLVTVSS
B12: TPP-1410 PD138G7(G109D)-1GS-CD137A-6GS-HSA2 (bispecific antibody)
chain: EVQLVESGGGVVRPGGSLRLSCAASGFTFDDYAMSWVRQAPGKGLEWVSGITWNGGSTGYADSVKDRFTISRDNAKNSLYLQMNSLRAEDTALYYCVRDKYSYAWSYDDFDIWGQGTMVTVSSGGGGSEVQLVESGGGLVQPGGSLRLSCAASGFTLSNYWMNWVRQAPGKGLEWVANINQDGSERYYVDSVKGRFTISRDNAKNSLYLQMNSLRAEDTAVYYCARGGEGYGVDHYGLDVSGQGTTVTVSSGGGGSGGGGSGGGGSGGGGSGGGGSGGGGSEVQLVESGGGLVKPGGSLRLSCAASGFTFSNYNMNWVRQAPGKGLEWVSSISSAGTHIYYADSVKGRFTISRDNAKNSLYLQMNSLRAEDTAVYYCARDPHSTGWYKDFDYWGQGTLVTVSS

The binders below were run against human CD137 expressed on cells (Jurkat human CD137 NF-kB luciferase reporter cells; human CD8+ T cells) (human, UniProt Q07011 24-255) (assay: cell-based or functional assay).
B1 was tested, and the “Jurkat-CD137/CHO-PD-1 Reporter Assay EC50” value was 0.134 nM.

Each binder was assayed against T1, human PD-1 expressed on CHO cells (human, UniProt Q15116 21-288) (assay: FMAT/Mirrorball on CHO huPD1 cells).
T1 construct: also called CHO huPD1; CHO human PD1 cells
Protocol: (§1) Binding of His-tagged molecules to CHO human CD137, CHO parent and CHO human PD1 cells was assessed using Fluorescence Microvolume Assay Technology (FMAT). All reagents were prepared in FMAT assay buffer (pH 7.4) containing PBS, 0.1% Bovine Serum Albumin, 0.05% Sodium Azide. […] Fluorescence emission was then measured on the TTP Mirrorball plate reader in the FL2 (502 nm-537 nm) and FL5 (677-800 nm) channels following excitation at 488 nm and 640 nm. Data was gated on FL5 perimeter and peak intensity and the FL2 median mean fluorescence intensity of the gated data used for determination of VH binding. Monovalent CD137 specific Humabody® VH, and trispecific molecules with a CD137 binding arm bound to CHO CD137 expressing cells. Trispecific Humabody® VH, with a PD1 binding arm bound to PD1 expressing cells.
For B2, the EC50 was 0.844 nM.
Binder B3 has an EC50 of 0.766 nM.
For B4, the EC50 was 0.144 nM.
B5 was tested, and the EC50 was 0.414 nM.
In the case of B6, the EC50 is reported as 0.792 nM.
For B7, the EC50 was 0.805 nM.
For B8, the EC50 was 0.346 nM.
Binder B9 has an EC50 of 1.23 nM.
In the case of B10, the EC50 is reported as 0.164 nM.

These binders were tested against T2, human CD137 expressed on CHO cells (human, UniProt Q07011 18-255) (assay: FMAT/Mirrorball on CHO huCD137 cells).
T2 construct: also called CHO huCD137; CHO human CD137 cells
Protocol: as §1
For B2, the EC50 was 0.735 nM.
Binder B3 has an EC50 of 1.17 nM.
Binder B4 has an EC50 of 0.207 nM.
Binder B5 has an EC50 of 0.223 nM.
Binder B6 has an EC50 of 0.39 nM.
B7 showed an EC50 of 0.419 nM.
Binder B8 has an EC50 of 0.499 nM.
For B10, the EC50 was 0.157 nM.

Each binder was assayed against T3, recombinant Fc-tagged ectodomain of human CD137 (Acro Biosystems 41B-H5258) (human, UniProt Q07011 24-186) (assay: SPR, Biacore 8K, single-cycle kinetics; Fc-tagged ectodomain captured on Protein G chip; 1:1 model).
T3 construct: Bought protein; not shown: Fc tag
Protocol: (§2) Binding of Humabody® VH constructs was measured using a single-cycle kinetics method using the BIAcore 8K instrument with 90 second sample injections with a sample concentration range of low nanomolar to high nanomolar. […] The Protein G sensor surface was regenerated with a 20 second injection of 10 mM Glycine buffer, pH 1.5 (GE Healthcare BR100354). Data were analysed using a 1:1 binding model in Biacore Insight Evaluation software, including Humabody® VH constructs with two PD-1 arms.
B11 gave a Kd of 1.93 nM, a koff of 0.000208 s⁻¹ and a kon of 108000 M⁻¹ s⁻¹.
Work on B1 yielded a Kd of 2.02 nM, a koff of 0.000307 s⁻¹ and a kon of 152000 M⁻¹ s⁻¹.
With B12 the Kd was 1.47 nM, the koff was 0.000121 s⁻¹ and the kon was 81800 M⁻¹ s⁻¹.

These binders were tested against T4, recombinant Fc-tagged ectodomain of human PD1 (Acro Biosystems PD1-H5257) (human, UniProt Q15116 25-170) in the same assay as above.
T4 construct: Bought protein; not shown: Fc tag
Protocol: as §2
Work on B11 yielded a Kd of 4.98 nM, a koff of 0.00267 s⁻¹ and a kon of 537000 M⁻¹ s⁻¹.
B1 gave a Kd of 4.16 nM, a koff of 0.00241 s⁻¹ and a kon of 580000 M⁻¹ s⁻¹.
For B12, the Kd was 7.57 nM, the koff was 0.00224 s⁻¹ and the kon was 296000 M⁻¹ s⁻¹.
